# Reference: US20240279845A1, “METHOD FOR PREPARING A LIBRARY OF PEPTIDES OR A PEPTIDE” (ECOLE POLYTECHNIQUE FEDERALE DE LAUSANNE (EPFL), priority 2021, published 2024)
# B1: FXII (Homo sapiens) (protein)
# chain: VVGGLVALRGAHPYIAALYWGHSFCAGSLIAPCWVLTAAHCLQDRPAPEDLTVVLGQERRNHSCEPCQTLAVRSYRLHEAFSPVSYQHDLALLRLQEDADGSCALLSPYVQPVCLPSGAARPSETTLCQVAGWGHQFEGAEEYASFLQEAQVPFLSLERCSAPDVHGSSILPGMLCAGFLEGGTDACQGDSGGPLVCEDQAAERRLTLQGIISWGSGCGDRNKPGVYTDVAYYLAWIREHTVS
# Substrate: Cc1cc(=O)oc2cc(NC(=O)[C@H](CCCNC(=N)N)NC(=O)CNC(=O)[C@H](CCC(N)=O)NC(=O)OC(C)(C)C)ccc12
# Test: Substrate KM for protease screen, FXII
# Type: biochemical
# Details: other: FXII
# Method: Crude macrocyclic libraries (4 mM DMSO stocks in 384-well LDV plates were transferred into 1536-well microtiter OptiPlates via ADE. Applied buffered solutions were prepared by filtration through PTFE syringe filters (0.22 μm) and assays were initiated by addition of protease (4.41 μl/well) in appropriate buffer (see list below) supplemented with bovine serum albumin (BSA; 0.1% w/v) and dispensed using a CERTUS automated liquid handler. Plates were incubated for 10 min at ambient temperature before fluorogenic substrate in appropriate buffer (4.5 μl) was added using a CERTUS automated liquid handler. Plates were centrifugated (800 g, 2 min) and fluorescence intensity was measured using a PHERAstar plate reader (excitation 384 nm, emission 440 nm) in time increments of 150 s over 15 min. Slopes of fluorescence increase (m) were calculated with Microsoft Excel (vers. 16.56). Negative controls were prepared without macrocycle. An average of 12 negative controls was used to calculate residual activities using Equation I below: […]
# where [S]0 is the initial substrate concentration and KM is the Michaelis-Menten constant^12 for the enzyme and substrate.
protein,measurement,value
B1,Km,260 ± 40 µM
